Measurements as given in patent US9988424 (DUKE UNIVERSITY, dated 2018).

What was measured:
D.9009SA V1V2 Tags [1] = molecular target: T1, D.9009SA V1V2 Tags; experiment: ELISA, OD405
T1 Env construct: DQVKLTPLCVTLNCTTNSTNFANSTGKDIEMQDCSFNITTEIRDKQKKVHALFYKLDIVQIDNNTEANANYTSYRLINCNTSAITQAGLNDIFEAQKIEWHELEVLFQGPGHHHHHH

Con 6 120 = molecular target: T2, Con 6 120; experiment: ELISA OD405nm, bar chart, antibody concentration not given
T2 construct: also called Con 6 gp120

AE.con env03 40CF = molecular target: T3, AE.con env03 40CF; experiment: as above
T3 construct: also called AE.con gp140CF; AE.con.env03 gp140CF

B.62357 140C = molecular target: T4, B.62357 140C; experiment: as above
T4 construct: also called B.62357 gp140C

SIV CPZ US-1 gp140CF = molecular target: T5, SIV CPZ US-1 gp140CF (SIVcpz); experiment: as above
T5 construct: also called US-1 SIVCPZ gp140CF
T5 chain: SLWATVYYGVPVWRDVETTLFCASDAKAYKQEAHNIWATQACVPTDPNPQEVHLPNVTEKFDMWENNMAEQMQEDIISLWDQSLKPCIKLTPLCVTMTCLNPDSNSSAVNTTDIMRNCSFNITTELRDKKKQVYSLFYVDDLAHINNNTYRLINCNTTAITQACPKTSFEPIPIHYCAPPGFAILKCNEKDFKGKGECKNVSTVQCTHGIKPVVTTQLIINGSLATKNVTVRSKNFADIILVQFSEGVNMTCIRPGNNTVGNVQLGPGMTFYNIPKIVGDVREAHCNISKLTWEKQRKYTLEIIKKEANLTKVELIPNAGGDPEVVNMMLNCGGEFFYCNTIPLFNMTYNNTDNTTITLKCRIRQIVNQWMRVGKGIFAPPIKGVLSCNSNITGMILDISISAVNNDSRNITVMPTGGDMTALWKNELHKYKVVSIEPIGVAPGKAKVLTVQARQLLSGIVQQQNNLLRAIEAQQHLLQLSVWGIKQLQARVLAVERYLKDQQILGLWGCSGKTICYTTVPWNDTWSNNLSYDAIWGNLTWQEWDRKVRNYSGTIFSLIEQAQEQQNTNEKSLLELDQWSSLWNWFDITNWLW

B.040 gp140C = experiment: as above
G.con 140CF = molecular target: T6, G.con 140CF; experiment: as above
T6 construct: also called G.con gp140CF; G.con.env03 gp140CF

B.con env03 140CF = molecular target: T7, B.con env03 140CF; experiment: as above
T7 construct: also called B.con gp140CF

[2] = molecular target: T8, J08 B.HXB2/BALV1V2N156QN160Q (HIV-1); experiment: ELISA, mAb 0.001-100 ug/ml on coated V1V2 scaffold, OD450
T8 chain: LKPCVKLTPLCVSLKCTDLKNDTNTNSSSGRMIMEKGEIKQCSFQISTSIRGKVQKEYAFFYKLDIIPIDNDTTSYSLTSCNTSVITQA

gp70 A.92RW020V1V2 = gp70 A.92RW020V1V2 (murine leukemia virus; HIV-1); experiment: as above
gp70 B.HXB2/BALV1V2 = molecular target: T9, gp70 B.HXB2/BALV1V2 (murine leukemia virus; HIV-1); experiment: as above
T9 chain: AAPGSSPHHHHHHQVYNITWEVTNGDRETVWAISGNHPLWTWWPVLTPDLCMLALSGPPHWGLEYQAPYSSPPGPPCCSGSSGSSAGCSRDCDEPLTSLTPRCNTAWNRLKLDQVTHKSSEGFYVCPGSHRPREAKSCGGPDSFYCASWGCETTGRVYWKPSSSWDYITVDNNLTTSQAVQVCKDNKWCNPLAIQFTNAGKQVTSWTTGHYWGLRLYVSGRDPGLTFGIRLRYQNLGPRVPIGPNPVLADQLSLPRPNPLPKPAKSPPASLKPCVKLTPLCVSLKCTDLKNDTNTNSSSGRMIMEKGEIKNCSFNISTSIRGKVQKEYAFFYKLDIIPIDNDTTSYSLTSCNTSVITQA

Env of SHIV-1157ipEL-p = Env of SHIV-1157ipEL-p (SHIV); experiment: cell-based or functional assay
Env of SHIV-BaL = Env of SHIV-BaL (SHIV); experiment: cell-based or functional assay
Env of SHIV-SF162P4 = Env of SHIV-SF162P4 (SHIV); experiment: cell-based or functional assay
Env of SHIV-1157ipd3N4 = Env of SHIV-1157ipd3N4 (SHIV); experiment: cell-based or functional assay
Env of SHIV SF162P3 = Env of SHIV SF162P3 (SHIV); experiment: cell-based or functional assay
C.1086 gp140 = molecular target: T10, C.1086 gp140; experiment: ELISA, OD405 at 10 ug/ml mAb
T10 construct: also called C.1086gp140C

AE.con gp140CF = molecular target: T11, AE.con gp140CF; experiment: ELISA, OD405 at 10 ug/ml mAb
T11 construct: also called AE.con.env03 gp140CF

A.9004SS V1V2 Tags = molecular target: T12, A.9004SS V1V2 Tags; experiment: ELISA, OD405 at 10 ug/ml mAb
T12 Env construct: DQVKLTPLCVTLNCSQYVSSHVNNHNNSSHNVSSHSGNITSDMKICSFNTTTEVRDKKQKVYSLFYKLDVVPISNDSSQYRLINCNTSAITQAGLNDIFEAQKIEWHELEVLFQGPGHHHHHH

D.9009SA V1V2 Tags [3] = molecular target: T1, D.9009SA V1V2 Tags; experiment: ELISA, OD405 at 10 ug/ml mAb

B1: 697D (antibody, V domains shown)
VH: QVQLVQSGAEVKKPGSSVKVSCKASGGNFNTYTISWVRQAPGQGLEWMGRIIPIFGIVNPAQKFPGRVTINVDKSTNTAYMELSSLRSEDTAVYYCATSGVGLHFGYFDYWGQGTQVTVSS
VL: QSVLTQPPSVSGAPGQRVTISCTGSSSNIGAHYDVHWYQQLPGTAPKLLIYGNSNRPSGVPDRFSGSKSGTSASLAITGLQAEDEADYYCQSYDSSLSGYVFGTGTKVTVL
notes: also called mAb 697D; V2 conformational mAb 697D
- binding result (D.9009SA V1V2 Tags [1]): no binding (tested: 10 ug/ml)

B2: CH58 reverted unmutated ancestor antibody (antibody, V domains shown)
VH: EVQLVQSGAEVKKPGESLKISCKGSGYSFTSYWIGWVRQMPGKGLEWMGIIYPGDSDTRYSPSFQGQVTISADKSISTAYLQWSSLKASDTAMYYCARLGGRYYYDSSGYYYFDYWGQGTLVTVSS
VL: NFMLTQPHSVSESPGKTVTISCTRSSGSIASNYVQWYQQRPGSSPTTVIYEDNQRPSGVPDRFSGSIDSSSNSASLTISGLKTEDEADYYCQSYDSSSWVFGGGTKLTVL
notes: also called CH58 RUA; CH58_RUA
- binding result (Con 6 120): no binding (tested: not given)
- binding result (AE.con env03 40CF): no binding (tested: not given)
- binding result (B.62357 140C): no binding (tested: not given)
- binding result (SIV CPZ US-1 gp140CF): no binding (tested: not given)
- binding result (B.040 gp140C): no binding (tested: not given)
- binding result (G.con 140CF): no binding (tested: not given)
- binding result (B.con env03 140CF): no binding (tested: not given)

B3: PG16 (antibody, V domains shown)
VH: QEQLVESGGGVVQPGGSLRLSCLASGFTFHKYGMHWVRQAPGKGLEWVALISDDGMRKYHSDSMWGRVTISRDNSKNTLYLQFSSLKVEDTAMFFCAREAGGPIWHDDVKYYDFNDGYYNYHYMDVWGKGTTVTVSS
VL: QSALTQPASVSGSPGQTITISCNGTSSDVGGFDSVSWYQQSPGKAPKVMVFDVSHRPSGISNRFSGSKSGNTASLTISGLHIEDEGDYFCSSLTDRSHRIFGGGTKVTVL
notes: also called mAb PG16; bnAb PG16
- binding result [2]: no binding (tested: 100 ug/ml)
- binding result (gp70 A.92RW020V1V2): no binding (tested: 100 ug/ml)
- binding result (gp70 B.HXB2/BALV1V2): no binding (tested: 100 ug/ml)

B4: CH59 (antibody, V domains shown)
VH: EVQLVESGGGLVQPGRSLRLSCAASGFTFDDGAMHWVRQAPGKGLEWVSGISWNSNIIAYADSVKGRFTISRDNAKNSLYLEMNSLRVEDTALYYCAKDSPRGELPLNYWGQGTLVTVSS
VL: SYELTQPPSVSVSPGQTARITCSGDALPKNYAYWYQQKSGQAPVLVIYEDSKRPSGIPERFSGSSSGTMATLTISGAQVEDEADYYCYSTDSSGNHRVFGGGTKLTVL
notes: also called mAb CH59
- EC50, neutralization of SHIV C.1157ipEL-p (tier 1A) (Env of SHIV-1157ipEL-p): 24.6 µg/mL
- EC50, neutralization of SHIV B.BaL (tier 2) (Env of SHIV-BaL): > 50 µg/mL
- EC50, neutralization of SHIV B.SF162P4 (tier 2) (Env of SHIV-SF162P4): > 50 µg/mL
- EC50, neutralization of SHIVC.1157ipd3N4 (tier 2) (Env of SHIV-1157ipd3N4): > 50 µg/mL
- EC50, neutralization of SHIV B.SF162P3 (tier 2) (Env of SHIV SF162P3): > 50 µg/mL
- binding result (C.1086 gp140): binds
- binding result (AE.con gp140CF): binds
- binding result (A.9004SS V1V2 Tags): binds
- binding result (D.9009SA V1V2 Tags [3]): binds
